Test results reported in patent publication US20100243450.

Target: Mef2c (UniProt Q06413)
Details: NECEEM; 25 mM tetraborate pH 9.4, room temperature; koff 0.022 s-1, kon 45 M-1 s-1

Mef2c, sequence (Q06413 whole entry): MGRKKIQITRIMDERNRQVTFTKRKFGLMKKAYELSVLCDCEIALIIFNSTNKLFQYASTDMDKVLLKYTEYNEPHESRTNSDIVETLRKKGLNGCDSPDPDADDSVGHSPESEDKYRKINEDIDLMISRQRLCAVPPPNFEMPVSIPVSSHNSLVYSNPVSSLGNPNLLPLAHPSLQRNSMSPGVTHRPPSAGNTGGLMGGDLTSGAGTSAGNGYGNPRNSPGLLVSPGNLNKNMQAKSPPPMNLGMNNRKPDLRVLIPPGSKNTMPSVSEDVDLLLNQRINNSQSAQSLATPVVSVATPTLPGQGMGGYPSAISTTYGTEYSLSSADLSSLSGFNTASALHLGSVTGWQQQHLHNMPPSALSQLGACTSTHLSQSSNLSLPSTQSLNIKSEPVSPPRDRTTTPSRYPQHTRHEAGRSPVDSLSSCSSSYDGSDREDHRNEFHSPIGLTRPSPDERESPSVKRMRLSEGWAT

CCTGCCACGCTCCGCTCTAAAAATAA (double strand) [Mef2c target dsDNA 26 bp]
Kd: 480 µM
